These results are taken from patent US20140087995A1 (published 2014).

Numbered stars: 1 amine (or outer) side, 2 acyl side, 3 side chain; on linkers, the order of the positions; unused ones are H or OH. Bridge positions count the residues as written; N and C are the ends. Side chains are listed from the residue outwards. Ends that are not written are not given here. * marks the point of attachment. C20 diacid = O=C(O)CCCCCCCCCCCCCCCCCCC(=O)*; γGlu = O=C(O)[C@H](CCC(=O)[*:2])N[*:1]; AEEA = NCCOCCOCC(=O)O

The target in assay [1] is T1, human calcitonin receptor (human, UniProt P30988 25-474).
T1 sequence (looked up): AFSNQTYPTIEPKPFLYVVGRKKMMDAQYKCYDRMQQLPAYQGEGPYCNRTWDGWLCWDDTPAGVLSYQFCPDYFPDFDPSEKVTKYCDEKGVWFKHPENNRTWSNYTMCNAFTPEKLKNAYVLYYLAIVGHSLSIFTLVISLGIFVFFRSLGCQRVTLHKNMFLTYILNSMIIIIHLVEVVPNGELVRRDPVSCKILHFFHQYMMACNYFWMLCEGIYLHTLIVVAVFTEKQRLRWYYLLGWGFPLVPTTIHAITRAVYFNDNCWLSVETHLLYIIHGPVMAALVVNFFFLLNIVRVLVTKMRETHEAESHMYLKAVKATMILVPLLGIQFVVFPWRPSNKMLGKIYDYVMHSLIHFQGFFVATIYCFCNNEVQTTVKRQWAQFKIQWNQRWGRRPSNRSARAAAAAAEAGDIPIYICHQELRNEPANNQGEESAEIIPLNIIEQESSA
In words: cell-based or functional assay.

Assay [2] has as its target T2, human amylin receptor (amylin 3(a) receptor: human calcitonin receptor plus RAMP-3) (human, UniProt P30988 25-474; O60896 24-148).
T2 sequence (looked up) 1: T1 sequence (looked up)
T2 sequence (looked up) 2: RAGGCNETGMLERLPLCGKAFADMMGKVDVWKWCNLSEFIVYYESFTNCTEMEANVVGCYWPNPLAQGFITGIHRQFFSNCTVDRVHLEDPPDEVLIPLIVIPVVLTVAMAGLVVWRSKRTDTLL
In words: cell-based or functional assay.

The target in assay [3] is T2, human amylin receptor (amylin 3(a) …). In words: SPA competition binding, displacement of 125I-rat amylin, membranes of BHK amylin 3(a)/CRE-luc cells. As to the method: The binding assay was performed using scintillation proximity assay (SPA) beads (RPNQ0001) from PerkinElmer and cell membranes from the Amylin 3(a)/CRE-luc cells (as described in Assay (II)) were used. Membranes were prepared in the following way; the cells were rinsed with PBS and incubated with Versene for approximately 5 min before harvesting. The cells were flushed with PBS and the cell-suspension was centrifuged for 5 min at 1000 rpm. Cells were homogenized (ultrathurrax) in a buffer containing 20 mM Na-HEPES and 10 mM EDTA (pH 7.4) and centrifuged at 20.000 rpm for 15 min. The resulting pellet was resuspended, homogenized and centrifuged (20.000 rpm, 15 min) in a buffer containing 20 mM Na-HEPES and 0.1 mM EDTA (pH 7.4, buffer 2). The resulting pellet was resuspended in buffer 2 and protein concentration was measured (BCA protein Assay, Pierce). The homogenate was kept cold during the whole procedure. The membranes were kept at −80° C. until use. The assay was performed in a 384 well Optiplate (PerkinElmer) in a total volume of 40 ul. Membranes were mixed with SPA beads. Final concentration of membranes 35 ng/μL final and SPA beads was 0.05 mg/well. Test-compounds were dissolved in DMSO and further diluted in assay buffer (50 mM Hepes, pH 7.4, 1 mM CaCl2, 5 mM MgCl₂, 0.1% OA and 0.02% Tween20). […] The final mixture was incubated with shaking at 400 rpm for 120 min at 25° C. prior to centrifugation (1500 rpm, 10 min). Samples were analyzed on TopCounter™ (Packard). The IC₅₀ was calculated using (one site binding competition analysis) GraphPad Prism5 as a measure of receptor affinity.

B1: N^ε1-[2-[2-[2-[[(4S)-4-carboxy-4-(19-carboxynonadecanoylamino)butanoyl]amino]ethoxy]ethoxy]acetyl]-[Arg17,Pro21,Pro27,Glu35]-h-amylin (peptide)
peptide: K([AEEA-γGlu-C20 diacid])CNTATCATQRLANFLRHSSPNFGAIPSSTNVGSETY-NH2
modifications: disulfide 2-7; N-terminus assumed
SMILES: CC[C@H](C)[C@H](NC(=O)[C@H](C)NC(=O)CNC(=O)[C@H](Cc1ccccc1)NC(=O)[C@H](CC(N)=O)NC(=O)[C@@H]1CCCN1C(=O)[C@H](CO)NC(=O)[C@H](CO)NC(=O)[C@H](Cc1c[nH]cn1)NC(=O)[C@H](CCCNC(=N)N)NC(=O)[C@H](CC(C)C)NC(=O)[C@H](Cc1ccccc1)NC(=O)[C@H](CC(N)=O)NC(=O)[C@H](C)NC(=O)[C@H](CC(C)C)NC(=O)[C@H](CCCNC(=N)N)NC(=O)[C@H](CCC(N)=O)NC(=O)[C@@H](NC(=O)[C@H](C)NC(=O)[C@@H]1CSSC[C@H](NC(=O)[C@@H](N)CCCCNC(=O)COCCOCCNC(=O)CC[C@H](NC(=O)CCCCCCCCCCCCCCCCCCC(=O)O)C(=O)O)C(=O)N[C@@H](CC(N)=O)C(=O)N[C@@H]([C@@H](C)O)C(=O)N[C@@H](C)C(=O)N[C@@H]([C@@H](C)O)C(=O)N1)[C@@H](C)O)C(=O)N1CCC[C@H]1C(=O)N[C@@H](CO)C(=O)N[C@@H](CO)C(=O)N[C@H](C(=O)N[C@@H](CC(N)=O)C(=O)N[C@H](C(=O)NCC(=O)N[C@@H](CO)C(=O)N[C@@H](CCC(=O)O)C(=O)N[C@H](C(=O)N[C@@H](Cc1ccc(O)cc1)C(N)=O)[C@@H](C)O)C(C)C)[C@@H](C)O
notes: also called compound 26
Consider B1, for which the “hCTR funct. EC50 (pM)” value in assay [1] stood at 6340 pM. Besides, in assay [2], the “Ratio hCT/hAmylin funct.” value was 29.9 and the “hAmylin-R funct. EC50 (pM)” value came to 212 pM. In addition, the concentration for half-maximal inhibition (IC50) in assay [3] came to 0.532 nM.

B2: N^ε1-[2-[2-[2-[[(4S)-4-carboxy-4-(19-carboxynonadecanoylamino)butanoyl]amino]ethoxy]ethoxy]acetyl]-[Arg17,Pro21,Pro27,Pro31,His35]-h-amylin (peptide)
peptide: K([AEEA-γGlu-C20 diacid])CNTATCATQRLANFLRHSSPNFGAIPSSTPVGSHTY-NH2
modifications: disulfide 2-7; N-terminus assumed
SMILES: CC[C@H](C)[C@H](NC(=O)[C@H](C)NC(=O)CNC(=O)[C@H](Cc1ccccc1)NC(=O)[C@H](CC(N)=O)NC(=O)[C@@H]1CCCN1C(=O)[C@H](CO)NC(=O)[C@H](CO)NC(=O)[C@H](Cc1c[nH]cn1)NC(=O)[C@H](CCCNC(=N)N)NC(=O)[C@H](CC(C)C)NC(=O)[C@H](Cc1ccccc1)NC(=O)[C@H](CC(N)=O)NC(=O)[C@H](C)NC(=O)[C@H](CC(C)C)NC(=O)[C@H](CCCNC(=N)N)NC(=O)[C@H](CCC(N)=O)NC(=O)[C@@H](NC(=O)[C@H](C)NC(=O)[C@@H]1CSSC[C@H](NC(=O)[C@@H](N)CCCCNC(=O)COCCOCCNC(=O)CC[C@H](NC(=O)CCCCCCCCCCCCCCCCCCC(=O)O)C(=O)O)C(=O)N[C@@H](CC(N)=O)C(=O)N[C@@H]([C@@H](C)O)C(=O)N[C@@H](C)C(=O)N[C@@H]([C@@H](C)O)C(=O)N1)[C@@H](C)O)C(=O)N1CCC[C@H]1C(=O)N[C@@H](CO)C(=O)N[C@@H](CO)C(=O)N[C@H](C(=O)N1CCC[C@H]1C(=O)N[C@H](C(=O)NCC(=O)N[C@@H](CO)C(=O)N[C@@H](Cc1c[nH]cn1)C(=O)N[C@H](C(=O)N[C@@H](Cc1ccc(O)cc1)C(N)=O)[C@@H](C)O)C(C)C)[C@@H](C)O
notes: also called compound 57
With B2, the “hCTR funct. EC50 (pM)” value in assay [1] is 3120 pM. For the same molecule, in assay [2], the “Ratio hCT/hAmylin funct.” value was determined as 35 and the “hAmylin-R funct. EC50 (pM)” value amounted to 89 pM. Moreover, the IC50 in assay [3] was 0.115 nM.

One may read the IC50 as the concentration needed to halve the response being measured.
